Laboratory results from article PMC8237399.

Tests used:
[1] = biological target: filamin C (FLNc) Ig-like domains 23–24, wild type (human); assay: SEC-MALS
[2] = biological target: filamin C (FLNc) Ig-like domains 23–24, wild type (human); assay: cross-linking
[3] = biological target: filamin C (FLNc) Ig-like domains 23–24, wild type (human); assay: cross-linking; remark: listed apart in the source

Measured: stoichiometry N

filamin C (FLNc) Ig-like domains 23–24, wild type (domain or fragment)
2: all assays above
